T1: Recombinant human CD40L (human, UniProt P29965 108-261, limits assumed)
T1 construct: also called CD40 ligand
T1 sequence (looked up): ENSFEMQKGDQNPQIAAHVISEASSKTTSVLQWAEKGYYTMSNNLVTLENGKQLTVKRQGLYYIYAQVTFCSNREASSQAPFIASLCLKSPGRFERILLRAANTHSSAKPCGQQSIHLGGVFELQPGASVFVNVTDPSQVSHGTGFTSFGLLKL


biological target: T1, Recombinant human CD40L; assay: CD40L/CD40-Fc receptor binding assay;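 also: plate assay with coated human CD40-Fc, bound ligand detected via HRP anti-biotin antibody and TMB, OD at 450 nm, lower signal indicates stronger inhibition by dAb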
Procedure: A 96 well Nunc Maxisorp assay plate was coated overnight at 4° C. with 100 μl per well of recombinant human CD40/Fc (R&D Systems) at 0.5 μg/ml in carbonate buffer. The plate was washed 3 times with 300 μl of 0.05% Tween/PBS and 3 times with 300 μl of PBS using a Tecan plate washer. The wells were blocked using 200 μl of PBS containing 2% (w/v) BSA and incubated for a minimum of 1 h at room temperature. The wells were washed as above, then 50 μl of purified dAb protein (or unpurified supernatant containing dAb from a micro-culture expression) was added to each well.
The plate was washed as described above, then 100 μl HRP conjugated anti-biotin antibody (1:5000 dilution in diluent) added to each well and the plate incubated for 1 hr at room temperature. The plate was washed again as described above using a Tecan plate washer and the assay developed using 100 μl of SureBlue 1-Component TMB MicroWell Peroxidase solution (the plate was left at room temperature for up to 20 min). The reaction was stopped by the addition of 100 μl M hydrochloric acid. The OD₄₅₀ₙₘ of the plate was assayed within 30 minutes of acid addition. The OD₄₅₀ₙₘ is proportional to the amount of bound streptavidin-HRP conjugate, therefore the greater the degree of dAb inhibition the lower the OD₄₅₀ₙₘ of the resulting signal.

Binder | binding result
DOM-36 (other, Vk dAb) VL: DIQMTQSPSSLSASVGDRVTITCRASQDIDHNLEWYQQKPGKAPKLLIYDSSMLQSGVPSRFSGSGSGTDFTLTISSLQPEDFATYYCQQYHSIPVTFGQGTKVEIKR | binds
DOM-47 (other, Vk dAb) VL: DIQMTQSPSSLSASVGDRVTITCRASQWIGDSLSWYQQKPGKAPKLLIYFGSYLQSGVPSRFSGSGSGTDFTLTISSLQPEDFATYYCQQYLHTPSTFGQGTKVEIKR | binds
DOM.162 (other, Vk dAb) VL: DIQMTQSPSSLSASVGDRVTITCRASQDISDDLEWYQQKPGKAPKLLIYNSSFLQSGVPSRFSGSGSGADFTLTISSLQPEDFATYYCQQYHSLPVTFGQGTKVEIKR | binds
DOM-38 (other, Vk dAb) VL: DIQMTQSPSSLSASVGDRVTITCRASQDIGNNLEWYQQKPGKAPRLLIYHGSWLQSGVPSRFSGSGSGTDFTLTISSLQPEDFATYYCQQYDFNPTTFGQGTKVEIKR | binds
DOM-86 (other, Vk dAb) VL: DIQMTQSPSSLSASVGDRVTITCRASQDIGDALFWYQQKPGKAPKLLIYYSSMLQSGVPSRFSGGGSGTDFTLTISSLQPEDFATYYCQQRHSTPATFGQGTKVEIKR | binds
DOM-116 (other, Vk dAb) VL: DIQMTQSPSSLSASVGDRVTITCRASQPIGPDLLWYQQKPGKAPKLLIYQTSILQSGVPSRFSGSGSGTDFTLTISSLQPEDFATYYCQQYWAFPVTFGQGTKVEIKR | binds
DOM.142 (other, Vk dAb) VL: DIQMTQSPSSLSASVGDRVTITCRASQFIGDSLSWYQQKPGKAPKLLIYFSSILQSGVPSRFSGSGSGTDFTLTISSLQPEDFATYYCQQYHTSPTTFGRGTKVKIKR | binds
DOM.156 (other, Vk dAb) VL: DIQMTQSPSSLSASVGDRVTITCRASQDIMDNLEWYQQKPGKAPKLLIYAASWLQSGVPSRFSGSGSGTDFTLTISSLQPEDFATYYCQQYHKLPVTFGQGTKVEIKR | binds
DOM.104 (other, Vk dAb) VL: DIQMTQSPSSLSASVGDRVTITCRASQAIGHRLRWYQQKPGKAPKLLIYHRSKLQSGVPSRFSGSGSGTDFTLTISSLQPEDFATYYCQQVRFSPYTFGQGTKVEIKR | binds
DOM-49 (other, Vk dAb) VL: DVQMTQSPSSLSASVGDRVTITCRASQWIGDSLSWYQQKPGKAPKLLIYFGSYLQSGVPSRFSGSGSGTDFTLTISSLQPEDFATYYCQQYMSAPSTFGQGTKVEIKR | binds
DOM.107 (other, Vk dAb) VL: DIQMTQSPSSLSASVGDRVTITCRASQAIGHRLRWYQQKPGKAPKLLIYHRSKLQSGVPSRFSGSGSGTDFTLTISSLQPEDFATYYCQQTYSSPHTFGQGTKVEIKR | binds
DOM.144 (other, Vk dAb) VL: DIQMTQSPSSLSASVGDRVTITCRASQMIDQDLEWYQQKPGKAPKLLIYNASWLQSGVPSRFSGSGSGTDFTLTISSLQPEDFATYYCQQYHGYPITFGQGTKVEIKR | binds
DOM.110 (other, Vk dAb) VL: DIQMTQSPASLSASVGDRVTITCRASQDIDPMLRWYQQKPGKAPKLLIYAGSILQSGVPSRFSGSGSGTDFTLTISSLQPEDFATYYCQQTSIRPYTFGQGTKVEIKR | binds
DOM-52 (other, Vk dAb) VL: DIQMTQSPSSLSASVGDRVTITCRASQDIGSALRWYQQKPGKAPKLLIYLGSDLQSGVPSRFSGSGSGTDFTLTISSLQPEDFATYYCQQTQYFPTTFGQGTKVEIKR | binds
DOM.109 (other, Vk dAb) VL: DIQMTQSPSSLSASVGDRVTITCRASQAIGHRLRWYQQKPGKAPKLLIYHRSKLQSGVPSRFSGSGSGTDFTLTISSLQPEDFATYYCQQTYYRPLTFGQGTKVEIKR | binds
DOM.161 (other, Vk dAb) VL: DIQMTQSPSSLSASVGDRVTITCRASQDIDSDLEWYQQKPGKAPMLLIYSSSDLQSGVPSRFSGSGSGTDFTLTISSLQPEDFATYYCQQYHSLPVTFGQGTKVEIKR | binds

Next, values leading:

binding result | Binder
binds | DOM.163 (other, Vk dAb) VL: DIQMTQSPSSLSASVGDRVTITCRASQDIEGNLEWYQQKPGKAPKLLIYDSSQLQSGVPSRFSGSGSGTDFTLTISSLQPEDFATYYCQQYHHLPTTFGQGTKVEIKR
binds | DOM.103 (other, Vk dAb) VL: DIQMTQSPSSLSASVGDRVTITCRASQAIGHRLRWYQQKPGKAPKLLIYHRSKLQSGVPSRFSGSGSGTDFTLTISSLQPEDFATYYCQQVRAVPYTFGQGTKVEIKR
binds | DOM.160 (other, Vk dAb) VL: DIQMTQSPSSLSASVGDRVTITCRASQDIEADLEWYQQKPGKAPKLLIYHSSELQSGVPSRFSGSGSGTDFTLTISSLQPEDFATYYCQQYHMSPVTFGQGTKVEIKR
binds | DOM.159 (other, Vk dAb) VL: DIQMIQSPSSLSASVGDRVTITCRASQDINEDLEWYQQKPGKAPKLLIYNASMLQSGVPSRFSGSGSGTDFTLTISSLQPKDFATYYCQQYHTNPTTFGQGTKVEIKR
binds | DOM.154 (other, Vk dAb) VL: DIQMTQSPSSLSASVGDRVTITCRASQDIEEMLHWYQQKPGKAPKLLIYFGSLLQSGVPSRFSGSRSGTDFTLTISSLQPEDFATYYCQQHHTRPYTFGQGTKVEIKR
binds | DOM.158 (other, Vk dAb) VL: DIQMTQSPSSLSASVGDRVTITCRASQPIDEDLEWYQQKPGNAPKLLIYSASYLQSGVPSRFSGSGSGTDFTLTISRLQPEDFATYYCQQYHLLPATFGQGTKVEIKR
binds | DOM.155 (other, Vk dAb) VL: DIQMTQSPSSLSASVGDRVTITCRASQDIGMDLEWYQQIPGKVPKLLIYDASYLQSGVPSRFSGSGSGTDFTLTISSLQPEDFATYYCQQYHKLPATFGQGTKVEIKR
binds | DOM.108 (other, Vk dAb) VL: DIQMTQSPSSLSASVGDRVTITCRASQAIGHRLRWYQQKPGKAPKLLIYHRSKLQSGVPSRFSGSGSGTDFTLTISSLQPEDFATYYCQQRAVRPFTFGQGTKVEIKR
binds | DOM.150 (other, Vk dAb) VL: DIQMTQSPSSLSASVGDRVTITCRASQGIGTDLNWYQQKPGKAPKLLIYMGSYLQSGVPSRFSGSGSGTDFTLTISSLQPEDFATYYCQQIYSFPITFGQGTKVEIKR
binds | DOM.143 (other, Vk dAb) VL: DIQMTQSPSSLSASVGDRVTITCRASQTIETNLEWYQQKPGKAPKLLIYDSSQLQSGVPSRFSGSGSGTDFTLTISSLQPEDLATYYCQQYHGYPTTFGQGTKVEIKR
binds | DOM.101 (other, Vk dAb) VL: DIQMTQSPSSLSASVGDRVTITCRASQAIGHRLRWYQQKPGKAPKLLIYHRSKLQSGVPSRFSGSGSGTDFTLTISSLQPEDFATYYCQQVALFPYTFGQGTKVEIKR
binds | DOM.91 (other, Vk dAb) VL: DIQMTQSPSSLSASVGDRVTITCRASQQISDELNWYQQKPGKAPKLLIYAVSILQSGVPSRFSGSGSGTDFTLTISSLQPEDFATYYCQQWLSFPSTFGQGTKVEIKR
binds | DOM-35 (other, Vk dAb) VL: DIQMTQSPSSLSASVGDRVTITCRASQFIGDSLSWYQQKPGKAPKLLIYFSSILQSGVPSRFSGSGSGTDFTLTISSLQPEDFATYYCQQYMDIPITFGQGTKVEIKR
binds | DOM.106 (other, Vk dAb) VL: DIQMTQSPSSLSASVGDRVTITCRASQSINHRLYWYQQKPGKAPKLLIYHRSRLQSGVPSRFSGSGSGTDFTLTISSLQPEDFATYYCQQYKVRPNTFGQGTKVEIKR
binds | DOM-37 (other, Vk dAb) VL: DIQMTQSPSSLSASVGDRVTITCRASQQIETNLEWYQQKPGKAPKLLIYDGSWLQSGVPSRFSGSGSGTDFTLTISSLQPEDFATYYCQQYHSLPATFGQGTKVEIKR
binds | DOM.147 (other, Vk dAb) VL: DIQMTQSPSSLSASVGDRVTITCRASQEIETNLEWYQQKPGKAPKLLIYDSSHLQSGVPSRFSGSGSGTDFTLTISSLQPEDFATYYCQQYHQNPPTFGQGTKVEIKR
binds | DOM.105 (other, Vk dAb) VL: DIQMTQSPSSLSASVGDRVTITCRASQAIGHRLRWYQQKPGKAPKLLIYHRSKLQSGVPSRFSGSGSGTDFTLTISSLQPEDFATYYCQQSYARPVTFGQGTKVEIKR
binds | DOM.89 (other, Vk dAb) VL: DIQMTQSPASLSASVGDRVTITCRASQDIDPMLRWYQQKPGKAPKLLIYAGSILQSGVPSRFSGSGSGTDFTLTISSLQPEDFATYYCQQTLVTPYTFGQGTKVEIKR
binds | DOM.157 (other, Vk dAb) VL: DIQMTQSPSSLSASVGDRVTITCRASQNIGEDLEWYQQKPGNAPKLLIYSASHLQSGVPSRFSGSGSGTDFTLTISSLQPEDFATYYCQQYSSYPVTFGQGTKVEIKR
